In patent US20230227559A1:

Molecular target: His-tagged ectodomains of hFcγRIIIA variant V158 (human) (UniProt P08637)
Experiment: SPR (ProteON), His-tagged hFcγRIIIA V158 ectodomains on chip, mAb injected

His-tagged ectodomains of hFcγRIIIA variant V158 (human), sequence (P08637 other isoform, or with tags, fused parts or gaps mutant): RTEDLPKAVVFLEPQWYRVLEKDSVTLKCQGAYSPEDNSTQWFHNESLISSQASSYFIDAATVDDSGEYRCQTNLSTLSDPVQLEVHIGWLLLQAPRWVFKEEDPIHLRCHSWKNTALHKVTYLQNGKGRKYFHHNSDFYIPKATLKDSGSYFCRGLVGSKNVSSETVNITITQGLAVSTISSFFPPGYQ

Row | Kd [nM] | koff [s⁻¹] | kon [M⁻¹ s⁻¹] | Substance
1 | 2.1 | 0.00021 | 300000 | Chimeric 3G8 hIgG1 (antibody)
2 | 2.88 | 0.0003 | 110000 | Chimeric 3G8 hIgG1 N297A format (antibody)
